Measurements reported in patent publication US20240173442A1 (Hoffmann-La Roche, published 2024).

T1: carcinoembryonic antigen (CEA) (human, UniProt P06731 35-685)
T1 construct: whole, on cells; also called CEACAM5; Carcinoembryonic antigen-related cell adhesion molecule 5
T1 sequence (looked up): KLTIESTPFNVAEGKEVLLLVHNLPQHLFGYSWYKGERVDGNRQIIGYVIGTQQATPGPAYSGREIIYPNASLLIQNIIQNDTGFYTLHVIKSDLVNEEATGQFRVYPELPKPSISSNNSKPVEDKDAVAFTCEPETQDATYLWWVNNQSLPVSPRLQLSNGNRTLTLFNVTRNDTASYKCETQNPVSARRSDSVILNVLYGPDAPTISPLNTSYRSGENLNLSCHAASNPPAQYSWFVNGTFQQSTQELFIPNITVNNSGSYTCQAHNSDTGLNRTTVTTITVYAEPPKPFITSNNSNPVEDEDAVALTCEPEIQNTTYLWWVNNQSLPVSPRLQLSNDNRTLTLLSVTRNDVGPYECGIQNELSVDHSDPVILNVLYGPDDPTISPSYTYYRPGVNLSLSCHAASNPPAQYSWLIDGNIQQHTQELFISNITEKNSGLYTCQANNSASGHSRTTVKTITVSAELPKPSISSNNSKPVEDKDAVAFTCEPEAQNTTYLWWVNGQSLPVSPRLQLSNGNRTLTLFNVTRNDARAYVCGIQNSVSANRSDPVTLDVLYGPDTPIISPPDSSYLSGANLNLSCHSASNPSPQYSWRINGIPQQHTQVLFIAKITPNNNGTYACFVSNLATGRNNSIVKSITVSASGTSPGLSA


Molecular target: T1, carcinoembryonic antigen (CEA)
Assay: FACS on MKN-45 cells, detection with anti-huIgG(H+L)-Alexa488
Protocol: MKN-45 cells were detached from the culture bottle using Trypsin and were counted using a Casy cell counter. After pelleting at 4° C., 300 g the cells were resuspended in FACS Buffer (2.5% FCS in PBS), adjusted to 2.0E+06 cells/mL dispensed to 96-well PP V-bottom-Platte (25 μL/well=5.0E+04Zellen/well).
The CEA specific SPLIT antibodies (P1AF0712 or P1AF0713 respectively) were adjusted to 40 μg/mL in FACS buffer, resulting in a final concentration of 10 μg/mL. Both antibodies were added to the cells either separated followed by buffer or combined and incubated at 4° C. for 1 h. The cells were then washed twice in FACS buffer. After washing, the cells were resuspended in 50 μL FACS-buffer containing secondary antibody (<huIgG(H+L)>-Alexa488, c=10 μg/mL) and incubated 1h at 4° C. The cells were then washed twice in FACS buffer and resuspended in 70 μl/well FACS buffer for measurement using a FACS Canto (BD, Pharmingen).

| Binder | EC50 [µg/mL] |
| --- | --- |
| P1AF0712 (CEA-split-DOTA-VL, CH1A1A) (antibody, human IgG1, kappa, L234A L235A, also called CEA specific SPLIT antibody; P6_A) heavy 1: not shown heavy 2: QVQLVQSGAEVKKPGASVKVSCKASGYTFTEFGMNWVRQAPGQGLEWMGWINTKTGEATYVEEFKGRVTFTTDTSTSTAYMELRSLRSDDTAVYYCARWDFAYYVEAMDYWGQGTTVTVSSASTKGPSVFPLAPSSKSTSGGTAALGCLVKDYFPEPVTVSWNSGALTSGVHTFPAVLQSSGLYSLSSVVTVPSSSLGTQTYICNVNHKPSNTKVDKKVEPKSCDKTHTCPPCPAPEAAGGPSVFLFPPKPKDTLMISRTPEVTCVVVDVSHEDPEVKFNWYVDGVEVHNAKTKPREEQYNSTYRVVSVLTVLHQDWLNGKEYKCKVSNKALGAPIEKTISKAKGQPREPQVCTLPPSRDELTKNQVSLSCAVKGFYPSDIAVEWESNGQPENNYKTTPPVLDSDGSFFLVSKLTVDKSRWQQGNVFSCSVMHEALHNHYTQKSLSLSPGGGGGSGGGGSGGGGSGGGGSQAVVIQESALTTPPGETVTLTCGSSTGAVTASNYANWVQEKPDHLFTGLIGGHNNRPPGVPARFSGSLIGDKAALTIAGTQTEDEAIYFCALWYSDHWVIGGGTKLTVL light: DIQMTQSPSSLSASVGDRVTITCKASAAVGTYVAWYQQKPGKAPKLLIYSASYRKRGVPSRFSGSGSGTDFTLTISSLQPEDFATYYCHQYYTYPLFTFGQGTKLEIKRTVAAPSVFIFPPSDEQLKSGTASVVCLLNNFYPREAKVQWKVDNALQSGNSQESVTEQDSKDSTYSLSSTLTLSKADYEKHKVYACEVTHQGLSSPVTKSFNRGEC | 2.7 |
| P1AF0713 (CEA-split-DOTA-VH-AST, CH1A1A) (antibody, human IgG1, kappa, L234A L235A, also called CEA specific SPLIT antibody; P6_B) heavy 1: QVQLVQSGAEVKKPGASVKVSCKASGYTFTEFGMNWVRQAPGQGLEWMGWINTKTGEATYVEEFKGRVTFTTDTSTSTAYMELRSLRSDDTAVYYCARWDFAYYVEAMDYWGQGTTVTVSSASTKGPSVFPLAPSSKSTSGGTAALGCLVKDYFPEPVTVSWNSGALTSGVHTFPAVLQSSGLYSLSSVVTVPSSSLGTQTYICNVNHKPSNTKVDKKVEPKSCDKTHTCPPCPAPEAAGGPSVFLFPPKPKDTLMISRTPEVTCVVVDVSHEDPEVKFNWYVDGVEVHNAKTKPREEQYNSTYRVVSVLTVLHQDWLNGKEYKCKVSNKALGAPIEKTISKAKGQPREPQVCTLPPSRDELTKNQVSLSCAVKGFYPSDIAVEWESNGQPENNYKTTPPVLDSDGSFFLVSKLTVDKSRWQQGNVFSCSVMHEALHNHYTQKSLSLSPG heavy 2: not shown light: DIQMTQSPSSLSASVGDRVTITCKASAAVGTYVAWYQQKPGKAPKLLIYSASYRKRGVPSRFSGSGSGTDFTLTISSLQPEDFATYYCHQYYTYPLFTFGQGTKLEIKRTVAAPSVFIFPPSDEQLKSGTASVVCLLNNFYPREAKVQWKVDNALQSGNSQESVTEQDSKDSTYSLSSTLTLSKADYEKHKVYACEVTHQGLSSPVTKSFNRGEC | 2.3 |
